{
  "source": "patent US20240174992A1",
  "about": "“SPLIT MODIFIED DEHALOGENASE VARIANTS” (Promega Corporation, priority 2022, published 2024)",
  "molecular_target": "T1, BRD4:Histone H3 interaction (Homo sapiens, UniProt O60885)",
  "T1 construct": "HaloTag[3-19]; expressed in transfected cells; host or cells: HeLa cells",
  "experiment": "Single live cell time-lapse imaging after JQ1 addition (SmHaloTag dissociation)",
  "format": "cell-based",
  "settings": "20 micromolar JQ1, up to about 5 hours, ligand-bound",
  "procedure": "FIG. 139. Quantitation of single live cell time-lapse imaging of inhibition of the BRD4:Histone H3 interaction using split HaloTag fluorescence. […] The intensity of a single cell in both the green and the far-red channel plus its occupied area was tracked over this period.\nMeasurement of the fluorescence intensity of Split HaloTag after the dissociation of the Small HaloTag peptide, HaloTag[3-19], was tested. After the separation of the SmHaloTag, the Large HaloTag, HaloTag[22-297](M2F), is still covalently bound to the ligand but does the Small HaloTag dissociation affect the ligand fluorogenicity/activity? Time-lapse live cell imaging was performed to address this question. To ensure the tracked cell was viable during the experiment, the area occupied by that specific cell was measured at all time points.",
  "data": [
    {"molecule": "HaloTag[22-297](M2F): large HaloTag fragment, positions 22-297 with M to F substitution at second position (protein) MFHYVDVGPRDGTPVLFLHGNPTSSYVWRNIIPHVAPTHRCIAPDLIGMGKSDKPDLGYFFDDHVRFMDAFIEALGLEEVVLVIHDWGSALGFHWAKRNPERVKGIAFMEFIRPIPTWDEWPEFARETFQAFRTTDVGRKLIIDQNVFIEGTLPMGVVRPLTEVEMDHYREPFLNPVDREPLWRFPNELPIAGEPANIVALVEEYMDWLHQSPVPKLLFWGTPGVLIPPAEAARLAKSLPNCKAVDIGPGLNLLQEDNPDLIGSEIARWLSTLEISG", "values": [
      {"measurement": "change in cell intensity upon SmHaloTag dissociation", "value": "reduces almost by half"}
    ]}
  ]
}
